T1: IL1RAP protein (analyte of the Biacore study, Example A(i)) (human, UniProt Q9NPH3 21-367, limits assumed)
T1 construct: also called the analyte; human IL1RAP
T1 sequence (looked up): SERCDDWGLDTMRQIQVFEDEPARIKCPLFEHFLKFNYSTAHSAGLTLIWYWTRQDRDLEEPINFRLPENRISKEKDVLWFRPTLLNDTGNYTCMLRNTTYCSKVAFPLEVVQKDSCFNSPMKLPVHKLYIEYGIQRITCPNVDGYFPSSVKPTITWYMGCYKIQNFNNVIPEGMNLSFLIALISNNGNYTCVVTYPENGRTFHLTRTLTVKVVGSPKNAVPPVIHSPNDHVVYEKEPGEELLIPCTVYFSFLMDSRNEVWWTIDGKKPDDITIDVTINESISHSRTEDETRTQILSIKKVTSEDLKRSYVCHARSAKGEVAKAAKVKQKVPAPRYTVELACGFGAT

T2: human IL1RAP on cells (KU812, LAMA-84, HEK-Blue IL-33/IL-1β cells) (human, UniProt Q9NPH3 21-570)
T2 sequence (looked up): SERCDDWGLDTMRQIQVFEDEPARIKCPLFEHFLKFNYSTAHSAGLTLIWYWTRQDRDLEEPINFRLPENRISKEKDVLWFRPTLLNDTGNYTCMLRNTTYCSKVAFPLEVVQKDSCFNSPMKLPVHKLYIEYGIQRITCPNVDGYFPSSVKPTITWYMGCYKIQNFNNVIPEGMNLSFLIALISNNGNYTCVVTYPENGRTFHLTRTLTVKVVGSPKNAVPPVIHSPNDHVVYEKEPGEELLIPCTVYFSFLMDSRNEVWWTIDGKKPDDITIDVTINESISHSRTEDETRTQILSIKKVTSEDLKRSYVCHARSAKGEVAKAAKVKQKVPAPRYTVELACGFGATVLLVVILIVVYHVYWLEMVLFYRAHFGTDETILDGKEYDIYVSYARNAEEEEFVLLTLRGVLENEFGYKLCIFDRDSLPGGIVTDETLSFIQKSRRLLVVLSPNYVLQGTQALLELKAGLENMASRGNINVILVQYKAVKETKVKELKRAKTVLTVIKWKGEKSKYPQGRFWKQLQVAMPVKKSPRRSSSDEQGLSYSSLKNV


Legend:
[1] = target: T1, IL1RAP protein (analyte of the Biacore …); test: SPR, BIAcore T200, antibody captured by anti-mouse IgG, analyte 100 nM, 25 C
Method: Goat anti-mouse IgG was immobilized on a CM5 chip according to the technical manual of capture kit and standard operation principle of BIAcore T200 (Biacore Life Sciences, GE Healthcare Europe GmbH, Uppsala, Sweden).
The capture molecule surface was regenerated after each binding cycle using the manufacturer's recommended conditions.
After five cycles of start-up, each antibody (100 nM) was injected at a flow rate of 30 μl/min, for 120 s, at the start of the cycle; then the analyte (100 nM) was injected at a flow rate of 30 μl/min, for 120 s, followed by monitoring the dissociation phase for 300 s.

[2] = target: T2, human IL1RAP on cells (KU812, LAMA-84, …); test: cell-based or functional assay
[3] = target: T2, human IL1RAP on cells (KU812, LAMA-84, …); test: cell-based or functional assay; remark: listed apart in the source

Row | Kd [1] | koff [1] | kon [1] | EC50, murine IL-1 alpha-stimulated HEK-Blue IL-33/IL-1β cells [2] | EC50, murine IL-1 beta-stimulated HEK-Blue IL-33/IL-1β cells [2] | EC50, murine IL-33-stimulated HEK-Blue IL-33/IL-1β cells [2] | IC50, murine IL-1 alpha-stimulated HEK-Blue IL-33/IL-1β cells [2] | IC50, murine IL-1 beta-stimulated HEK-Blue IL-33/IL-1β cells [2] | IC50, murine IL-33-stimulated HEK-Blue IL-33/IL-1β cells [2] | EC50, human IL-1α-stimulated HEK-Blue IL-33/IL-1β cells [3] | EC50, human IL-1β-stimulated HEK-Blue IL-33/IL-1β cells [3] | EC50, human IL-33-stimulated HEK-Blue IL-33/IL-1β cells [3] | IC50, human IL-1α-stimulated HEK-Blue IL-33/IL-1β cells [3] | IC50, human IL-1β-stimulated HEK-Blue IL-33/IL-1β cells [3] | IC50, human IL-33-stimulated HEK-Blue IL-33/IL-1β cells [3] | Binder
1 | 1.43 nM | 0.000335 s⁻¹ | 234000 M⁻¹ s⁻¹ | 84.2 nM | > 100 nM | > 100 nM | 81.7 nM | 50 nM | > 100 nM |  |  |  |  |  |  | CAN01 (antibody, V domains shown, Murine-derived monoclonal anti-IL1RAP antibody; also called CAN01-AF488 (AlexaFluor488-labelled form)) VH: QVQLQQSGTELMKPGASVKISCKATGYTVSSYWIDWVKQTPGHGLEWIGEILPGSAINNYNEKFKGKATFTADTSSNTAYMQLSSLTSEDSAVYYCASGDYFDSTFVYYWGQGTTLTVSS VL: DVLMTQTPLSLPVSLGDQASISCRSSQSIVHSNGNTYLEWYLQKPGQSPKLLIYKVSNRFSGVPDRFSGSGSGTDFTLKISRVEAEDLGVYYCFQGSHVPRTFGGGTKLEIKR
2 | 0.321 nM | 7.25e-05 s⁻¹ | 226000 M⁻¹ s⁻¹ | 2.9 nM | 1.56 nM | 4.01 nM | 5 nM | 1.59 nM | 4.12 nM | 37.6 nM | 10.5 nM | 30.5 nM | 37.3 nM | 10.1 nM | 30.4 nM | CAN03 (antibody, V domains shown, Murine-derived monoclonal anti-IL1RAP antibody; also called CAN03-AF488 (AlexaFluor488-labelled form)) VH: DVKLVESGGGLVKPGGSLKLSCAASGFTFSIYTMSWVRQTPEKRLEWVATISIGGSYINYPDSVKGRFTISRDNAKNTLYLQMSSLKSEDTAIYYCSREVDGSYAMDYWGQGTSVTVSS VL: DILLTQSPAILSVSPGERVSFSCRASQSIGTSIHWYQRRTNGSPRLLIKSASESISGIPSRFSGSGSGTDFTLSINSVESEDIADYYCQQSNSWPTTFGAGTKLELKR

From patent US20180355049A1 (CANTARGIA, published 2018)
